According to article PMC11565947 (bioRxiv, 2024):

Key:
[1] = molecular target: T1, prefusion-stabilized hMPV F protein (hMPV prefusion F trimer) (human metapneumovirus; subgroup/strain …, stabilised); test: cell-based or functional assay
T1 chain 1: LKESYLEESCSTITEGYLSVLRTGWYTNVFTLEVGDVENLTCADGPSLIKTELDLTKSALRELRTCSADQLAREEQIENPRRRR
T1 chain 2: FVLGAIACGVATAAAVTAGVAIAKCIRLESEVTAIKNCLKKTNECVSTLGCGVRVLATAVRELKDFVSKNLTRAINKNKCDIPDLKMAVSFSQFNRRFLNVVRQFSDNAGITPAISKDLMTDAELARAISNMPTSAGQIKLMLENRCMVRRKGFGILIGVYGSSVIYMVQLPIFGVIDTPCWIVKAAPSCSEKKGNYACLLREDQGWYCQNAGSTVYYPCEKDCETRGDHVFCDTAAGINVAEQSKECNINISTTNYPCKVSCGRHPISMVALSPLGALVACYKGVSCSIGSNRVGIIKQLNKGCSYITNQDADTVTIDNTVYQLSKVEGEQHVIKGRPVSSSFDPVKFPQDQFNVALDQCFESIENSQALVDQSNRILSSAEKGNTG

[2] = molecular target: prefusion-stabilized RSV F protein (RSV prefusion F trimer) (human respiratory syncytial virus A, …, UniProt P03420, stabilised); test: ELISA
[3] = molecular target: T2, prefusion-stabilized hMPV F construct hMPV F-DS-CavEs2-IPDS (human metapneumovirus, N-linked glycans (Asn172, Asn57)); test: cryo-EM structure
T2 chain: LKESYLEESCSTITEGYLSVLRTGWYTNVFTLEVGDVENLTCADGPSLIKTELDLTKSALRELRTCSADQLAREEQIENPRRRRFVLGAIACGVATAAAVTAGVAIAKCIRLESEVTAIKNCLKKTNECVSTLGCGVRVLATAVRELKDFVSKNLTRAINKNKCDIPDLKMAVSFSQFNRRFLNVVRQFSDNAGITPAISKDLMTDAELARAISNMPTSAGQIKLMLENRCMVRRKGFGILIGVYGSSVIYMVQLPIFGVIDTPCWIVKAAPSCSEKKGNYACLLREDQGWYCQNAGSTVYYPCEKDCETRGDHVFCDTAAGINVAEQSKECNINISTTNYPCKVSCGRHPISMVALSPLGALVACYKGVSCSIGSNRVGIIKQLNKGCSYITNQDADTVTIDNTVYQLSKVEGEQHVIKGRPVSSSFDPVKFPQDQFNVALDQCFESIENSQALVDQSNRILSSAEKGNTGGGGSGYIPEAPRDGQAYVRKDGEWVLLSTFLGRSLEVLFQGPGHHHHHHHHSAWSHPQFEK

B1: monoclonal antibody 5–1 (recombinant human IgG1) (antibody, V domains shown)
VH: QGQLVQSGPEVKKPGATVKVSCRASAYPFGNYGITWVRQVPGQGLEWVGWISAYTGHTKFPQNFQGRVTLTADTSTSTGYMELRSLTSDDTAVYYCARGPCCSSPRPYDIWGQGTMVTVSS
VL: DIQMTQSPSTLSASVGDRVTITCRASQSIDDWLAWYQHSPGKAPKLLIYRASRLESGVPSRFSGSGSGTEFTLTISSLQPDDFASYYCQQCYTYSQTFGQGTRVEIK
Q: How did the “PRNT neutralisation of hMPV 97–83 and hMPV TN/93–32, IC50” value [1] turn out when B1 was run?
A: < 10 ng/mL

Q: Does B1 bind [2]?
A: binds

B2: 5–1 antigen-binding fragment (Fab) (Fab, V domains shown)
VH: B1 VH
VL: B1 VL
Q: For B2, which “stoichiometry N” value [3] is on record?
A: 3 Fabs per trimer
